Experimental data published in paper PMC3115796 (The Journal of Cell Biology, 2011).
One block for each binder: values may come before it.

Tests used:
BioGFP-SLAIN2 = BioGFP-SLAIN2 (human, UniProt Q9P270 1-581, biotin (substrate linker of the biotin ligase BirA, co-expressed)); test: pull-down
CLIPCG12 = biological target: T1, CLIPCG12 (human, UniProt P30622 48-300); test: ITC
T1 sequence: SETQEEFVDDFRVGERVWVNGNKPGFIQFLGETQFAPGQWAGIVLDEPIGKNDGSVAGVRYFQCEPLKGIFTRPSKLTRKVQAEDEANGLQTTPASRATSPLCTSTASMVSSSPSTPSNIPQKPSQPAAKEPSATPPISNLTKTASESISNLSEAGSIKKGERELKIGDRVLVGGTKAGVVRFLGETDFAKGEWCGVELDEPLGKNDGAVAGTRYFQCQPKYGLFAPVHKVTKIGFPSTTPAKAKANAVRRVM

SEC-MALS = biological target: the molecule itself; test: SEC-MALS

binding result (BioGFP-SLAIN2): binds
B1: GST–CLIP-170-N (domain or fragment)
chain: MSMLKPSGLKAPTKILKPGSTALKTPAAAAAPLEKTVPSEKASGPPSSETQEEFVDDFRVGERVWVNGNKPGFIQFLGETQFAPGQWAGIVLDEPIGKNDGSVAGVRYFQCEPLKGIFTRPSKLTRKVQAEDEANGLQTAHARAASPLSTAAATMVSSSPATPSNIPQKPSQPVAKETSATPQISNLTKTASESISNLSEAGSVKKGERELKIGDRVLVGGTKAGVVRFLGETDFAKGEWCGVELDEPLGKNDGAVAGTRYFQCQPKYGLFAPVHKVTKIGFPSTTPAKAKAAAVRRVMATTPASLKRSP

stoichiometry N (CLIPCG12): 2
Binder: GSMKDDSWKDGCY [SLAIN2c]

B2: SLAIN2 N-terminal fragment (residues 1–43) (domain or fragment)
chain: not shown
stoichiometry N (SEC-MALS): 2
